The results in this text go back to PMC2581436, “Role of Amphipathic Helix of a Herpesviral Protein in Membrane Deformation and T Cell Receptor Downregulation” (PLoS Pathogens, 2008).

This series concerns the molecule itself. Description: native gel or EMSA; Blue Native PAGE (10% native gel) of whole-cell lysates of 293T cells solubilized with 2.5% Triton X-100; GFP fusions detected by anti-GFP immunoblot; markers aldolase ~160 kDa and BSA 66/132 kDa. (In EMSA bound probe runs differently from free probe, usually more slowly.)

B1: GFP-Tip^211-256 (domain or fragment)
chain: ANERNIVKDLKRLENKINVIICLVVVILAVLLLVTVLSILHIGMKS
notes: source: 293T, transiently expressing, detergent-solubilized lysate
With B1, the “stoichiometry N” value was roughly 4.

Usually stoichiometry N stands for a count of units in the complex or per binding partner.
